Experimental data: article PMC5121632
Values joined by “and” are separate entries in the source; they are usually repeats but may differ in a detail not shown here. Equal values may be shown once.

Columns and labels:
[1] = test system: VT-TALE (dAvrBs3 TALE with periodic non-RVD mutations at repeat positions 4 and 32); test: ITC; conditions: ITC: 50 mM Tris-HCl pH 8.0, 200 mM NaCl, 1 mM DTT, 5% glycerol; 15 and 25 °C; 96 μM DNA injected into TALE; single-site model
[2] = test system: CT-TALE (dAvrBs3 TALE without periodic non-RVD mutations at repeat positions 4 and 32); test: ITC; conditions: ITC: 50 mM Tris-HCl pH 8.0, 200 mM NaCl, 1 mM DTT, 5% glycerol; 15 and 25 °C; 96 μM DNA injected into TALE; single-site model

Row | Sequence | Kd [1] | Kd [2]
1 | GGGTATACTCACACAATAGCTGGG (double strand) [EBEf] | 131 nM and 326 nM | 139 nM and 346 nM
2 | GGGTATACTCACTGGGTGTGGGGG (double strand) [EBEn] | 117 nM and 262 nM | 109 nM and 305 nM
